Molecular target: the molecule itself
Experiment: crystal structure; hanging-drop vapor diffusion; ammonium sulfate (50-80% saturated), NaCl 0.1 M, Tris HCl 20 mM pH 7.2; BFR D132F with <1 heme/24-mer; 12 monomers in the asymmetric unit; 2.0 Å

B1: E. coli bacterioferritin D132F variant (natural protein)
chain: not shown
notes: Bacterioferritin (BFR), E. coli, bfr gene in pET21a (pALN1) with D132F made by QuikChange; the model holds '12 complete monomers' in the asymmetric unit (1896 C-alpha atoms for the 12-mer, i.e. 158 per chain); Crystallised with <1 heme/24-mer, free of metal ions (apo); no tag is mentioned; also called BFR D132F; apo-D132F variant; copies: 24
binding result: binds

Source: PMC4319037, “The B-type Channel Is a Major Route for Iron Entry into the Ferroxidase Center and Central Cavity of Bacterioferritin*” (The Journal of Biological Chemistry, 2014)
